# Read-outs that look alike come from different tables or passages of the source.
# B1: DNA 'c' (dsDNA)
# DNA 1: GTATCTACAATGTAGATTG
# DNA 2: CAATCTACATTGTAGATAC
# B2: DNA 'a' (EMSA probe) (dsDNA)
# DNA 1: TTGATATATACTGT
# DNA 2: ACAGTATATATCAA
# B3: DNA 'b' (dsDNA)
# DNA 1: ATATACTGTATCTACATAT
# DNA 2: ATATGTAGATACAGTATAT
# B4: DNA 'cab' (dsDNA)
# DNA 1: CTCGTATCTACAATGTAGATTGATATATACTGTATCTACATATGATAGCGT
# DNA 2: ACGCTATCATATGTAGATACAGTATATATCAATCTACATTGTAGATACGAG
# B5: DNA 'a' (15 bp, altered ends) (dsDNA)
# DNA 1: CGTGATATATACTGC
# DNA 2: GCAGTATATATCACG
# B6: DNA 'a' (14 bp) (dsDNA)
# DNA 1: TTGATATATACTGT
# DNA 2: ACAGTATATATCAA
# Experiments:
# EcMazE1-50 [1] = molecular target: T1, EcMazE1-50 (Escherichia coli, UniProt P0AE72 1-50); test: ITC
# T1 chain: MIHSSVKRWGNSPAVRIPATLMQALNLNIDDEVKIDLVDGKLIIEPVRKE
# [2] = molecular target: EcMazE full-length;EcMazF (Escherichia coli;Escherichia coli, UniProt P0AE72;P0AE70 1-82;1-111, |); test: EMSA
# EcMazE full-length;EcMazF, sequence (P0AE70 whole entry, one chain of several): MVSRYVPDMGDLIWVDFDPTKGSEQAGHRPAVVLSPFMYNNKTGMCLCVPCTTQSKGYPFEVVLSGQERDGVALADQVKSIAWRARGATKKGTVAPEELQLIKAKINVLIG
# EcMazE1-50 [3] = molecular target: T1, EcMazE1-50; test: ITC
# EcMazE1-50 [4] = molecular target: T1, EcMazE1-50; test: NMR
# NMR solution structure = molecular target: the molecule itself; test: NMR solution structure
# EcMazE full-length = EcMazE full-length (Escherichia coli, UniProt P0AE72 1-82); test: ITC
# EcMazE full-length, sequence (P0AE72 whole entry): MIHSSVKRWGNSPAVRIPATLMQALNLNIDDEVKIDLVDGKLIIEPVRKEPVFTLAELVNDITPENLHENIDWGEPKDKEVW
binder,measurement,setting,value
B1,Kd,EcMazE1-50 [1],600 ± 200 nM
B2,binding result,[2],binds
B3,Kd,EcMazE1-50 [1],2100 ± 600 nM
B4,Kd,EcMazE1-50 [3],600 ± 500 nM
B5,binding result,EcMazE1-50 [4],binds
MIHSSVKRWGNSPAVRIPATLMQALNLNIDDEVKIDLVDGKLIIEPVRKE (domain or fragment) [truncated EcMazE^1–50 (N-terminal DNA binding domain of Escherichia coli antitoxin MazE)],stoichiometry N,NMR solution structure,2
B6,Kd,EcMazE1-50 [1],5600 ± 300 nM
same,Kd,EcMazE full-length,5100 ± 200 nM

# From article PMC4333400 (Nucleic Acids Research, 2015)
